Source: patent US20140087995A1 (published 2014)
Numbered stars: 1 amine (or outer) side, 2 acyl side, 3 side chain; on linkers, the order of the positions; unused ones are H or OH. Bridge positions count the residues as written; N and C are the ends. Side chains are listed from the residue outwards. Ends that are not written are not given here. * marks the point of attachment. C20 diacid = O=C(O)CCCCCCCCCCCCCCCCCCC(=O)*; γGlu = O=C(O)[C@H](CCC(=O)[*:2])N[*:1]; AEEA = NCCOCCOCC(=O)O

T1: human calcitonin receptor (human, UniProt P30988 25-474)
T1 construct: whole, on cells; Membranes of a stably transfected BHK cell line (Assay VII); also called hCTR; hCT
T1 sequence (looked up): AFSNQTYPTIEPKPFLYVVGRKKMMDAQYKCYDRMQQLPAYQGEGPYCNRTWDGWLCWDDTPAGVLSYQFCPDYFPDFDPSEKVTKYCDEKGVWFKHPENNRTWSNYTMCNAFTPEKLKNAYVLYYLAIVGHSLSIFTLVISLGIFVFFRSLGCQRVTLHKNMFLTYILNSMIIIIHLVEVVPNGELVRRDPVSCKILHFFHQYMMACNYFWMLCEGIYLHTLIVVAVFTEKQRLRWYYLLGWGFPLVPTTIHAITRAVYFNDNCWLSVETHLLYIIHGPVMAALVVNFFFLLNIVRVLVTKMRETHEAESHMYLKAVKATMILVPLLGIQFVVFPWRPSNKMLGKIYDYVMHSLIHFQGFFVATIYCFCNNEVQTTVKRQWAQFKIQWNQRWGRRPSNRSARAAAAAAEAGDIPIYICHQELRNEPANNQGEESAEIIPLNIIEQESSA

T2: rat amylin receptor (rat calcitonin receptor + rat RAMP 3) (rat, UniProt P32214 25-516; Q9JJ73 23-147)
T2 construct: whole, on cells; Membranes of transiently transfected BHK tk'ts 13 cells (Assay VI); also called rAmylin-R; rat amylin 3(a) receptor
T2 sequence (looked up) 1: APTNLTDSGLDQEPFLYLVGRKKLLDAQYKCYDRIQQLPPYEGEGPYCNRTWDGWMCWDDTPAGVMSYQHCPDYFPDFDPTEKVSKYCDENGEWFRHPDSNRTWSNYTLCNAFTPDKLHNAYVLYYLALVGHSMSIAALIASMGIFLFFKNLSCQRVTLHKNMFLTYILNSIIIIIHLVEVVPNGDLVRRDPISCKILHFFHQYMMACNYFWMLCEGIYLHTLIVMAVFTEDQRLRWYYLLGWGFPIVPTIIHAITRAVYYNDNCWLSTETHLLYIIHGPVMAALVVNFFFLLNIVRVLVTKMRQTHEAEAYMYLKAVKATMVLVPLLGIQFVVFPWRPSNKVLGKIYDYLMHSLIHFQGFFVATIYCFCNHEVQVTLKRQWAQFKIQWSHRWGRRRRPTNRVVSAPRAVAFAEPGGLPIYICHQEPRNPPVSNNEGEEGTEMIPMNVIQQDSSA
T2 sequence (looked up) 2: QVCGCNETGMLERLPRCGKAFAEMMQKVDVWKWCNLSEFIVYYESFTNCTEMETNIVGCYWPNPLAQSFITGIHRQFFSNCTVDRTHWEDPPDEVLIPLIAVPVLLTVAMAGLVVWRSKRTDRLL

T3: rat calcitonin receptor (rat, UniProt P32214 25-516)
T3 construct: whole, on cells; Membranes of transiently transfected BHK tk'ts 13 cells (Assay VIII); also called rCTR
T3 sequence (looked up): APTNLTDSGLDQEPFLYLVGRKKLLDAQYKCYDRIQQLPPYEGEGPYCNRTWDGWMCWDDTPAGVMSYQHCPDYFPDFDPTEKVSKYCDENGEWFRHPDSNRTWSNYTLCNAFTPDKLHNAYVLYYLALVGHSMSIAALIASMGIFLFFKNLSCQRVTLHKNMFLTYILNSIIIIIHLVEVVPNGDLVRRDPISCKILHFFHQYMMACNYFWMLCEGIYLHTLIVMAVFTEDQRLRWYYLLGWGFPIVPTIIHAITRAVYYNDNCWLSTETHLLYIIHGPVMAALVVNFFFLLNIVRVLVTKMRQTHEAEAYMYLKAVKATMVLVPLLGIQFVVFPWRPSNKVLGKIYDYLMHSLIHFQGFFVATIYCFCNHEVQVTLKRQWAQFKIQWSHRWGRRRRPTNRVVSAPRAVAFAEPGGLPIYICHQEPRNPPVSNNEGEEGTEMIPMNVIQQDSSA


Tests used:
[1] = biological target: T1, human calcitonin receptor; assay: ratio IC50 human calcitonin receptor / IC50 human amylin receptor (reference)
Description: The resulting pellet was resuspended, homogenized and centrifuged (20.000 rpm, 15 min) in a buffer containing 20 mM Na-HEPES and 0.1 mM EDTA (pH 7.4, buffer 2). The resulting pellet was resuspended in buffer 2 and protein concentration was measured (BCA protein Assay, Pierce). The homogenate was kept cold during the whole procedure. The membranes were kept at −80° C. until use. The assay was performed in a 384 well Optiplate (PerkinElmer) in a total volume of 40 ul. Membranes were mixed with SPA beads. Final concentration of membranes 35 ng/μL final and SPA beads was 0.05 mg/well. Test-compounds were dissolved in DMSO and further diluted in assay buffer (50 mM Hepes, pH 7.4, 1 mM CaCl2, 5 mM MgCl₂, 0.1% OA and 0.02% Tween20). […] The final mixture was incubated with shaking at 400 rpm for 120 min at 25° C. prior to centrifugation (1500 rpm, 10 min). Samples were analyzed on TopCounter™ (Packard). The IC₅₀ was calculated using (one site binding competition analysis) GraphPad Prism5 as a measure of receptor affinity.
Membranes were prepared in the following way; the cells were rinsed with PBS and incubated with Versene for approximately 5 min before harvesting. The cells were flushed with PBS and the cell-suspension was centrifuged for 5 min at 1000 rpm. Cells were homogenized (Ultrathurrax) in a buffer containing 20 mM Na-HEPES and 10 mM EDTA (pH 7.4) and centrifuged at 20.000 rpm for 15 min. The resulting pellet was resuspended, homogenized and centrifuged (20.000 rpm, 15 min) in a buffer containing 20 mM Na-HEPES and 0.1 mM EDTA (pH 7.4, buffer 2). The resulting pellet was resuspended in buffer 2 and protein concentration was measured (BCA protein Assay, Pierce). The homogenate was kept cold during the whole procedure. The membranes were kept at −80° C. until use. Assay was performed in a 384 well Optiplate (PerkinElmer) in a total volume of 40 ul. Membranes were mixed with SPA beads.

[2] = biological target: T2, rat amylin receptor (rat calcitonin …); assay: SPA competition with 125I-rat amylin, membranes of BHK cells with rat calcitonin receptor + rat RAMP3 (Assay VI)
rat calcitonin receptor [3] = biological target: T3, rat calcitonin receptor; assay: ratio IC50 rat calcitonin receptor / IC50 rat amylin receptor (reference)
rat calcitonin receptor [4] = biological target: T3, rat calcitonin receptor; assay: SPA competition with 125I-calcitonin, membranes of BHK cells with rat calcitonin receptor (Assay VIII)

Row | Binder | Ratio hCT/hAmylin binding [1] | IC50 [2] [nM] | Ratio rCT/rAmylin binding (rat calcitonin receptor [3]) | IC50 (rat calcitonin receptor [4]) [nM]
1 | K([γGlu-γGlu-C20 diacid])CNTATCATQRLAEFLRHSSPNFGAIPSSTNVGHNTY-NH2 (disulfide 2-7; N-terminus assumed; SMILES CC[C@H](C)[C@H](NC(=O)[C@H](C)NC(=O)CNC(=O)[C@H](Cc1ccccc1)NC(=O)[C@H](CC(N)=O)NC(=O)[C@@H]1CCCN1C(=O)[C@H](CO)NC(=O)[C@H](CO)NC(=O)[C@H](Cc1c[nH]cn1)NC(=O)[C@H](CCCNC(=N)N)NC(=O)[C@H](CC(C)C)NC(=O)[C@H](Cc1ccccc1)NC(=O)[C@H](CCC(=O)O)NC(=O)[C@H](C)NC(=O)[C@H](CC(C)C)NC(=O)[C@H](CCCNC(=N)N)NC(=O)[C@H](CCC(N)=O)NC(=O)[C@@H](NC(=O)[C@H](C)NC(=O)[C@@H]1CSSC[C@H](NC(=O)[C@@H](N)CCCCNC(=O)CC[C@H](NC(=O)CC[C@H](NC(=O)CCCCCCCCCCCCCCCCCCC(=O)O)C(=O)O)C(=O)O)C(=O)N[C@@H](CC(N)=O)C(=O)N[C@@H]([C@@H](C)O)C(=O)N[C@@H](C)C(=O)N[C@@H]([C@@H](C)O)C(=O)N1)[C@@H](C)O)C(=O)N1CCC[C@H]1C(=O)N[C@@H](CO)C(=O)N[C@@H](CO)C(=O)N[C@H](C(=O)N[C@@H](CC(N)=O)C(=O)N[C@H](C(=O)NCC(=O)N[C@@H](Cc1c[nH]cn1)C(=O)N[C@@H](CC(N)=O)C(=O)N[C@H](C(=O)N[C@@H](Cc1ccc(O)cc1)C(N)=O)[C@@H](C)O)C(C)C)[C@@H](C)O, also called compound 87) | 35.6 | 2.07 | 45.6 | 94.5
2 | K([AEEA-AEEA-γGlu-C20 diacid])CNTATCATQRLANFLRHSSPNFGAIPSSTNVGRNTY-NH2 (disulfide 2-7; N-terminus assumed; SMILES CC[C@H](C)[C@H](NC(=O)[C@H](C)NC(=O)CNC(=O)[C@H](Cc1ccccc1)NC(=O)[C@H](CC(N)=O)NC(=O)[C@@H]1CCCN1C(=O)[C@H](CO)NC(=O)[C@H](CO)NC(=O)[C@H](Cc1c[nH]cn1)NC(=O)[C@H](CCCNC(=N)N)NC(=O)[C@H](CC(C)C)NC(=O)[C@H](Cc1ccccc1)NC(=O)[C@H](CC(N)=O)NC(=O)[C@H](C)NC(=O)[C@H](CC(C)C)NC(=O)[C@H](CCCNC(=N)N)NC(=O)[C@H](CCC(N)=O)NC(=O)[C@@H](NC(=O)[C@H](C)NC(=O)[C@@H]1CSSC[C@H](NC(=O)[C@@H](N)CCCCNC(=O)COCCOCCNC(=O)COCCOCCNC(=O)CC[C@H](NC(=O)CCCCCCCCCCCCCCCCCCC(=O)O)C(=O)O)C(=O)N[C@@H](CC(N)=O)C(=O)N[C@@H]([C@@H](C)O)C(=O)N[C@@H](C)C(=O)N[C@@H]([C@@H](C)O)C(=O)N1)[C@@H](C)O)C(=O)N1CCC[C@H]1C(=O)N[C@@H](CO)C(=O)N[C@@H](CO)C(=O)N[C@H](C(=O)N[C@@H](CC(N)=O)C(=O)N[C@H](C(=O)NCC(=O)N[C@@H](CCCNC(=N)N)C(=O)N[C@@H](CC(N)=O)C(=O)N[C@H](C(=O)N[C@@H](Cc1ccc(O)cc1)C(N)=O)[C@@H](C)O)C(C)C)[C@@H](C)O, also called compound 95) | 63.4 | 5.45 | 71.3 | 388
3 | K([AEEA-C20 diacid])CNTATCATQRLANFLRHSSPNFGAIPSSTNVGHNTY-NH2 (disulfide 2-7; N-terminus assumed; SMILES CC[C@H](C)[C@H](NC(=O)[C@H](C)NC(=O)CNC(=O)[C@H](Cc1ccccc1)NC(=O)[C@H](CC(N)=O)NC(=O)[C@@H]1CCCN1C(=O)[C@H](CO)NC(=O)[C@H](CO)NC(=O)[C@H](Cc1c[nH]cn1)NC(=O)[C@H](CCCNC(=N)N)NC(=O)[C@H](CC(C)C)NC(=O)[C@H](Cc1ccccc1)NC(=O)[C@H](CC(N)=O)NC(=O)[C@H](C)NC(=O)[C@H](CC(C)C)NC(=O)[C@H](CCCNC(=N)N)NC(=O)[C@H](CCC(N)=O)NC(=O)[C@@H](NC(=O)[C@H](C)NC(=O)[C@@H]1CSSC[C@H](NC(=O)[C@@H](N)CCCCNC(=O)COCCOCCNC(=O)CCCCCCCCCCCCCCCCCCC(=O)O)C(=O)N[C@@H](CC(N)=O)C(=O)N[C@@H]([C@@H](C)O)C(=O)N[C@@H](C)C(=O)N[C@@H]([C@@H](C)O)C(=O)N1)[C@@H](C)O)C(=O)N1CCC[C@H]1C(=O)N[C@@H](CO)C(=O)N[C@@H](CO)C(=O)N[C@H](C(=O)N[C@@H](CC(N)=O)C(=O)N[C@H](C(=O)NCC(=O)N[C@@H](Cc1c[nH]cn1)C(=O)N[C@@H](CC(N)=O)C(=O)N[C@H](C(=O)N[C@@H](Cc1ccc(O)cc1)C(N)=O)[C@@H](C)O)C(C)C)[C@@H](C)O, also called compound 91) [N^ε1-[2-[2-[2-(19-carboxynonadecanoylamino)ethoxy]ethoxy]acetyl]-[Arg17,Pro21,Pro27,His34]-h-amylin] | 101 | 0.386 | 76.3 | 29.4
4 | K([AEEA-C20 diacid])CNTATCATQRLAHFLRHSSPNFGAIPSSTNVGSNTY-NH2 (disulfide 2-7; N-terminus assumed; SMILES CC[C@H](C)[C@H](NC(=O)[C@H](C)NC(=O)CNC(=O)[C@H](Cc1ccccc1)NC(=O)[C@H](CC(N)=O)NC(=O)[C@@H]1CCCN1C(=O)[C@H](CO)NC(=O)[C@H](CO)NC(=O)[C@H](Cc1c[nH]cn1)NC(=O)[C@H](CCCNC(=N)N)NC(=O)[C@H](CC(C)C)NC(=O)[C@H](Cc1ccccc1)NC(=O)[C@H](Cc1c[nH]cn1)NC(=O)[C@H](C)NC(=O)[C@H](CC(C)C)NC(=O)[C@H](CCCNC(=N)N)NC(=O)[C@H](CCC(N)=O)NC(=O)[C@@H](NC(=O)[C@H](C)NC(=O)[C@@H]1CSSC[C@H](NC(=O)[C@@H](N)CCCCNC(=O)COCCOCCNC(=O)CCCCCCCCCCCCCCCCCCC(=O)O)C(=O)N[C@@H](CC(N)=O)C(=O)N[C@@H]([C@@H](C)O)C(=O)N[C@@H](C)C(=O)N[C@@H]([C@@H](C)O)C(=O)N1)[C@@H](C)O)C(=O)N1CCC[C@H]1C(=O)N[C@@H](CO)C(=O)N[C@@H](CO)C(=O)N[C@H](C(=O)N[C@@H](CC(N)=O)C(=O)N[C@H](C(=O)NCC(=O)N[C@@H](CO)C(=O)N[C@@H](CC(N)=O)C(=O)N[C@H](C(=O)N[C@@H](Cc1ccc(O)cc1)C(N)=O)[C@@H](C)O)C(C)C)[C@@H](C)O, also called compound 90) [N^ε1-[2-[2-[2-(19-carboxynonadecanoylamino)ethoxy]ethoxy]acetyl]-[His14,Arg17,Pro21,Pro27]-h-amylin] | 42.2 | 0.246 | 74.1 | 18.2
